Test results as given in article doi:10.1101/2022.04.04.486996 (bioRxiv, 2022).

T1: E. coli ketosynthase FabF (E. coli, UniProt P0AAI5 1-413)
T1 sequence: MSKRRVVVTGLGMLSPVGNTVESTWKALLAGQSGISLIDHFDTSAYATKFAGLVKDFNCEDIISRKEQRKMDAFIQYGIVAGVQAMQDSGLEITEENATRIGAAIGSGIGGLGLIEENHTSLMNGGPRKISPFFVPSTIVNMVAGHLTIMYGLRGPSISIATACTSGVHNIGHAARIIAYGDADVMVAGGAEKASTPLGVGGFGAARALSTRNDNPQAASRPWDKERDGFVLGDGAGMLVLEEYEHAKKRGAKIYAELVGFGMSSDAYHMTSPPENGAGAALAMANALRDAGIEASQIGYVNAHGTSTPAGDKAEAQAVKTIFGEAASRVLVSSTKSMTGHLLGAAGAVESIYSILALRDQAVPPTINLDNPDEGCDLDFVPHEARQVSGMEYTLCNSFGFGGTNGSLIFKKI


Tests used:
crystal structure = target: the molecule itself; test: crystal structure
[1] = target: T1, E. coli ketosynthase FabF; test: cross-linking

binding result [1] | Binder | stoichiometry N (crystal structure)
– | E. coli ketosynthase FabB (enzyme) MKRAVITGLGIVSSIGNNQQEVLASLREGRSGITFSQELKDSGMRSHVWGNVKLDTTGLIDRKVVRFMSDASIYAFLSMEQAIADAGLSPEAYQNNPRVGLIAGSGGGSPRFQVFGADAMRGPRGLKAVGPYVVTKAMASGVSACLATPFKIHGVNYSISSACATSAHCIGNAVEQIQLGKQDIVFAGGGEELCWEMACEFDAMGALSTKYNDTPEKASRTYDAHRDGFVIAGGGGMVVVEELEHALARGAHIYAEIVGYGATSDGADMVAPSGEGAVRCMKMAMHGVDTPIDYLNSHGTSTPVGDVKELAAIREVFGDKSPAISATKAMTGHSLGAAGVQEAIYSLLMLEHGFIAPSINIEELDEQAAGLNIVTETTDRELTTVMSNSFGFGGTNATLVMRKLKD | 2
binds | ACP loaded with the (Z)-C14Cl chloroacrylate crosslinking probe (crypto-ACP) (natural protein, E. coli, S36 carries the 4'-phosphopantetheine analogue with the (Z)-C14Cl (C14-chloroacrylate) crosslinking probe) STIEERVKKIIGEQLGVKQEEVTNNASFVEDLGADSLDTVELVMALEEEFDTEIPDEEAEKITTVQAAIDYINGHQA | –
